According to patent publication US20200010519A1, “NUCLEASE FUSIONS FOR ENHANCING GENOME EDITING BY HOMOLOGY-DIRECTED TRANSGENE INTEGRATION” (INSTITUT NATIONAL DE LA SANTE ET DE LA RECHERCHE …, priority 2017, published 2020):

Tested on: AAVS1 locus
Assay: HDI of GFP cDNA at AAVS1 locus, FACS analysis, HEK293 cells
Assay type: cell-based, human

B1: HE2: Cas9 fused to HE2 (46-296 aa of CtIP; SEQ ID NO. 13), lacking the first 45 aa (protein, UniProt Q99708 46-296, looked up, fragment)
chain: KQERILDAQRLEEFFTKNQQLREQQKVLHETIKVLEDRLRAGLCDRCAVTEEHMRKKQQEFENIRQQNLKLITELMNERNTLQEENKKLSEQLQQKIENDQQHQAAELECEEDVIPDSPITAFSFSGVNRLRRKENPHVRYIEQTHTKLEHSVCANEMRKVSKSSTHPQHNPNENEILVADTYDQSQSPMAKAHGTSSYTPDKSSFNLATVVAETLGLGVQEESETQGPMSPLGDELYHCLEGNHKKQPFE
modifications: fused to Cas9
notes: Cas9 fused to HE2 (46-296 aa of CtIP; 13), lacking the first 45 aa
HDI of GFP cDNA (homology-directed insertion of the GFP donor): HE1 was the only fragment shown to significantly stimulate

B2: HE3: Cas9 fused to HE3 (166-296 aa of CtIP; SEQ ID NO. 14) containing the 3 CDK phosphorylation sites (protein, UniProt Q99708 166-296, looked up, fragment)
chain: TAFSFSGVNRLRRKENPHVRYIEQTHTKLEHSVCANEMRKVSKSSTHPQHNPNENEILVADTYDQSQSPMAKAHGTSSYTPDKSSFNLATVVAETLGLGVQEESETQGPMSPLGDELYHCLEGNHKKQPFE
modifications: fused to Cas9
notes: Cas9 fused to HE3 (166-296 aa of CtIP; 14) containing the 3 CDK phosphorylation sites
HDI of GFP cDNA (homology-directed insertion of the GFP donor): HE1 was the only fragment shown to significantly stimulate
